Here are results for two proteins from US20150355179.

The target in series [1] is T1, GST-CDKACTH1 labelled with Cy3 (CDKACTH1-Cy3).
T1 chain: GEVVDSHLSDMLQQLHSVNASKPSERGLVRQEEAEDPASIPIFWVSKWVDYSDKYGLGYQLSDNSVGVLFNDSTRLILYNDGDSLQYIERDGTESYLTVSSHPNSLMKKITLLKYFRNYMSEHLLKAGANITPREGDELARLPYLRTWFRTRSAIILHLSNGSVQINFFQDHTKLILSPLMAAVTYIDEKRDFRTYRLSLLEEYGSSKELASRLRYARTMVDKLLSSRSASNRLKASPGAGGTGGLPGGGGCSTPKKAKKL

Series [2] deals with GST-CDKACTH1 labelled with Cy3 (CDKACTH1-Cy3). This is another data set of the same source.

Where two headings read alike, the source gives them in different places.

B1: Plk3 kinase (protein)
chain: MEPAAGFLSPRPFQRAAAAPAPPAGPGPPPSALRGPELEMLAGLPTSDPGRLITDPRSGRTYLKGRLLGKGGFARCYEATDTETGSAYAVKVIPQSRVAKPHQREKILNEIELHRDLQHRHIVRFSHHFEDADNIYIFLELCSRKSLAHIWKARHTLLEPEVRYYLRQILSGLKYLHQRGILHRDLKLGNFFITENMELKVGDFGLAARLEPPEQRKKTICGTPNYVAPEVLLRQGHGPEADVWSLGCVMYTLLCGSPPFETADLKETYRCIKQVHYTLPASLSLPARQLLAAILRASPRDRPSIDQILRHDFFTKGYTPDRLPISSCVTVPDLTPPNPARSLFAKVTKSLFGRKKKSKNHAQERDEVSGLVSGLMRTSVGHQDARPEAPAASGPAPVSLVETAPEDSSPRGTLASSGDGFEEGLTVATVVESALCALRNCIAFMPPAEQNPAPLAQPEPLVWVSKWVDYSNKFGFGYQLSSRRVAVLFNDGTHMALSANRKTVHYNPTSTKHFSFSVGAVPRALQPQLGILRYFASYMEQHLMKGGDLPSVEEVEVPAPPLLLQWVKTDQALLMLFSDGTVQVNFYGDHTKLILSGWEPLLVTFVARNRSACTYLASHLRQLGCSPDLRQRLRYALRLLRDRSPA
For the protein B1, the “real-time fluorescence kinase assay (Cy3 fluorescence)” value in series [1] is given as “Plk1 or Plk3 did not induce any significant changes in the fluorescence of CDKACTH1, in the same range of concentrations”.

B2: recombinant CDK4/Cyclin D (enzyme, part only; not given: Cyclin D partner)
chain: MATSRYEPVAEIGVGAYGTVYKARDPHSGHFVALKSVRVPNGGGGGGGLPISTVREVALLRRLEAFEHPNVVRLMDVCATSRTDREIKVTLVFEHVDQDLRTYLDKAPPPGLPAETIKDLMRQFLRGLDFLHANCIVHRDLKPENILVTSGGTVKLADFGLARIYSYQMALTPVVVTLWYRAPEVLLQSTYATPVDMWSVGCIFAEMFRRKPLFCGNSEADQLGKIFDLIGLPPEDDWPRDVSLPRGAFPPRGPRPVQSVVPEMEESGAQLLLEMLTFNPHKRISAFRALQHSYLHKDEGNPE
In the case of B2, the “real-time fluorescence kinase assay (Cy3 fluorescence)” value in series [2] is “CDK4/Cyclin D kinase induced changes in CDKACTH1 fluorescence reminiscent of CDK2/Cyclin A”.
